Reference: paper PMC10335668 (2023)

B1: HCV E1 glycoprotein, H77 WT isolate [hepatitis C virus] / CD81 receptor [not stated] (parent complex)
chain 1: YQVRNSSGLYHVTNDCPNSSVVYEAADAILHTPGCVPCVREGNASRCWVAVTPTVATRDGKLPTTQLRRHIDLLVGSATLCSALYVGDLCGSVFLVGQLFTFSPRHHWTTQDCNCSIYPGHITGHRMAWNMMMNWSPTAALVVAQLLRIPQAIMDMIAGAHWGVLAGIKYFSMVGNWAKVLVVLLLFAGVDA
chain 2: MGVEGCTKCIKYLLFVFNFVFWLAGGVILGVALWLRHDPQTTNLLYLELGDKPAPNTFYVGIYILIAVGAVMMFVGFLGCYGAIQESQCLLGTFFTCLVILFACEVAAGIWGFVNKDQIAKDVKQFYDQALQQAVVDDDANNAKAVVKTFHETLDCCGSSTLTALTTSVLKNNLCPSGSNIISNLFKEDCHQKIDDLFSGKLYLIGIAAIVVAVIMIFEMILSMVLCCGIRNSSVY

Variants of: B1
Assay: CD81 receptor binding (method in S1 Text, not given); parent: 1; read off a plot

Variant | ratio to parent
chain 1 C16A, chain 1 C35A | ~0.8
chain 1 R4C, chain 1 Q111C | ~0.6
chain 1 E24C, chain 1 I29C | ~0.65
chain 1 C47A, chain 1 C115A | ~0.85
chain 1 C81A, chain 1 C90A | ~1.1
chain 1 C38A, chain 1 C113A | ~0.85
